Results published in the Immune Epitope Database (IEDB).

Assays:
[1] = target: HLA-C*15:02; assay: IEDB peptide-MHC binding, purified MHC/direct/fluorescence; filed as Kd, often an IC50 or EC50 that approximates it; ≥ and ≤ were set here for values at or beyond the usual limits of such assays
[2] = target: HLA-B*48:01; assay: as above
[3] = target: HLA-B*57:01; assay: as above
[4] = target: HLA-B*46:01; assay: as above
[5] = target: HLA-B*44:02; assay: as above; settings: source organism: Yellow fever virus strain Ghana/Asibi/1927
[6] = target: HLA-B*15:01; assay: as above
[7] = target: HLA-B*08:02; assay: as above
[8] = target: HLA-A*01:01; assay: as above
[9] = target: HLA-A*31:01; assay: as above
[10] = target: HLA-B*27:05; assay: as above
[11] = target: HLA-B*07:02; assay: as above
[12] = target: HLA-A*02:01; assay: as above; settings: source organism: Entamoeba histolytica
[13] = target: HLA-B*18:01; assay: as above
[14] = target: HLA-B*40:01; assay: as above; settings: source organism: Entamoeba histolytica
[15] = target: HLA-B*58:01; assay: as above
[16] = target: HLA-A*11:01; assay: as above; settings: source organism: Entamoeba histolytica
[17] = target: HLA-A*26:01; assay: as above
[18] = target: HLA-A*68:02; assay: as above; settings: source organism: Entamoeba histolytica
[19] = target: HLA-A*26:02; assay: as above
[20] = target: HLA-A*03:01; assay: as above; settings: source organism: Entamoeba histolytica
[21] = target: HLA-B*08:01; assay: as above
[22] = target: HLA-B*15:17; assay: as above; settings: source organism: Entamoeba histolytica
[23] = target: HLA-B*46:01; assay: IEDB peptide-MHC binding, purified MHC/competitive/fluorescence; filed as Kd, often an IC50 or EC50 that approximates it; ≥ and ≤ were set here for values at or beyond the usual limits of such assays
[24] = target: HLA-A*02:01; assay: as above
[25] = target: HLA-B*51:01; assay: as above
[26] = target: HLA-B*39:01; assay: as above
[27] = target: HLA-B*15:01; assay: as above
[28] = target: HLA-B*35:01; assay: as above; settings: source organism: Yersinia pestis Nepal516
[29] = target: HLA-C*03:03; assay: IEDB peptide-MHC binding, purified MHC/direct/fluorescence; filed as Kd, often an IC50 or EC50 that approximates it; ≥ and ≤ were set here for values at or beyond the usual limits of such assays
[30] = target: HLA-C*12:03; assay: as above; settings: source organism: Yersinia pestis Nepal516
[31] = target: HLA-C*07:02; assay: as above
[32] = target: HLA-C*05:01; assay: as above; settings: source organism: Yersinia pestis Nepal516
[33] = target: HLA-A*02:12; assay: IEDB peptide-MHC binding, purified MHC/competitive/fluorescence; filed as Kd, often an IC50 or EC50 that approximates it; ≥ and ≤ were set here for values at or beyond the usual limits of such assays; settings: source organism: Vibrio parahaemolyticus RIMD 2210633
[34] = target: HLA-B*18:01; assay: as above; settings: source organism: Vibrio parahaemolyticus RIMD 2210633
[35] = target: HLA-A*02:19; assay: as above; settings: source organism: Vibrio parahaemolyticus RIMD 2210633
[36] = target: HLA-A*26:01; assay: as above; settings: source organism: Vibrio parahaemolyticus RIMD 2210633
[37] = target: HLA-A*29:02; assay: as above; settings: source organism: Vibrio parahaemolyticus RIMD 2210633
[38] = target: HLA-B*57:01; assay: as above; settings: source organism: Vibrio parahaemolyticus RIMD 2210633
[39] = target: HLA-A*68:02; assay: as above; settings: source organism: Vibrio parahaemolyticus RIMD 2210633
[40] = target: HLA-A*03:01; assay: as above; settings: source organism: Vibrio parahaemolyticus RIMD 2210633
[41] = target: HLA-B*27:03; assay: as above; settings: source organism: Vibrio parahaemolyticus RIMD 2210633
[42] = target: HLA-A*02:03; assay: as above; settings: source organism: Vibrio parahaemolyticus RIMD 2210633
[43] = target: HLA-B*08:01; assay: as above; settings: source organism: Salmonella enterica subsp. enterica serovar Typhi
[44] = target: HLA-A*11:01; assay: as above
[45] = target: HLA-C*14:02; assay: IEDB peptide-MHC binding, purified MHC/direct/fluorescence; filed as Kd, often an IC50 or EC50 that approximates it; ≥ and ≤ were set here for values at or beyond the usual limits of such assays; settings: source organism: Burkholderia mallei SAVP1
[46] = source organism: Yellow fever virus
[47] = source organism: Yellow fever virus strain Ghana/Asibi/1927
[48] = source organism: Entamoeba histolytica
[49] = source organism: Yersinia pestis Nepal516
[50] = source organism: Vibrio parahaemolyticus RIMD 2210633
[51] = source organism: Salmonella enterica subsp. enterica serovar Typhi
[52] = source organism: Chelativorans sp. BNC1

With AIHPFALLL as the sequence, how does the Kd [1, 46] read?
The Kd was 0.099 µM.

And the Kd [2, 47]?
The Kd was no less than 20 µM.

What about the Kd [3, 47] of the same sequence?
The Kd was no less than 20 µM.

And the Kd [4, 47]?
The Kd was no less than 20 µM.

What about the Kd [5] of the same sequence?
Its Kd is no less than 20 µM.

What about the Kd [6, 47] of the same sequence?
Its Kd is no less than 20 µM.

And the Kd [7, 46]?
The Kd was no less than 20 µM.

And the Kd [8, 47]?
The Kd was no less than 20 µM.

And the Kd [9, 47]?
The Kd was no less than 20 µM.

What about the Kd [10, 47] of the same sequence?
Its Kd is no less than 20 µM.

What about the Kd [11, 47] of the same sequence?
The Kd was no less than 20 µM.

How did the Kd [12] turn out when DFGYATMAK was run?
The Kd was no less than 20 µM.

And the Kd [13, 48]?
The Kd was no less than 20 µM.

And the Kd [14]?
The Kd was no less than 20 µM.

What about the Kd [15, 48] of the same sequence?
Its Kd is no less than 20 µM.

What about the Kd [16] of the same sequence?
Its Kd is 0.836 µM.

And the Kd [17, 48]?
Its Kd is no less than 20 µM.

What about the Kd [2, 48] of the same sequence?
The Kd was no less than 20 µM.

What about the Kd [3, 48] of the same sequence?
Its Kd is no less than 20 µM.

And the Kd [18]?
The Kd was no less than 20 µM.

And the Kd [19, 48]?
Its Kd is no less than 20 µM.

What about the Kd [4, 48] of the same sequence?
Its Kd is no less than 20 µM.

And the Kd [6, 48]?
Its Kd is no less than 20 µM.

And the Kd [7, 48]?
Its Kd is no less than 20 µM.

And the Kd [8, 48]?
Its Kd is no less than 20 µM.

What about the Kd [20] of the same sequence?
The Kd was 1.6 µM.

And the Kd [21, 48]?
The Kd was no less than 20 µM.

And the Kd [9, 48]?
Its Kd is no less than 20 µM.

And the Kd [10, 48]?
Its Kd is no less than 20 µM.

What about the Kd [11, 48] of the same sequence?
Its Kd is no less than 20 µM.

And the Kd [22]?
Its Kd is no less than 20 µM.

EAMDTISVF was tested. Which Kd [23, 46] did it give?
Its Kd is 0.53 µM.

What about the Kd [19, 46] of the same sequence?
Its Kd is no more than 0.001 µM.

For ETLETLLLL, which Kd ([19]; source organism: Dengue virus 2 Thailand/16681/84) is on record?
Its Kd is 0.055 µM.

What does the source list for FAFKLSFAI?
Kd [24, 49]: 1.01 µM; Kd [25, 49]: ≥ 20 µM; Kd [26, 49]: 3 µM; Kd [27, 49]: ≥ 20 µM; Kd [28]: 0.065 µM; Kd [29, 49]: 0.004 µM; Kd [30]: ≤ 0.001 µM; Kd [31, 49]: ≥ 20 µM; Kd [32]: ≥ 20 µM

What does the source list for FIRWRFYLL?
Kd ([31]; source organism: Vibrio cholerae 2740-80): 4.08 µM; Kd ([21]; source organism: Vibrio cholerae V52): 0.216 µM

Which Kd [33] does the source give for HVIYFTAFT here?
Its Kd is no less than 20 µM.

And the Kd [24, 50]?
Its Kd is no less than 20 µM.

And the Kd [34]?
The Kd was no less than 20 µM.

What about the Kd [35] of the same sequence?
The Kd was no less than 20 µM.

And the Kd [36]?
Its Kd is no less than 20 µM.

And the Kd [37]?
The Kd was no less than 20 µM.

And the Kd [38]?
The Kd was no less than 20 µM.

And the Kd [39]?
Its Kd is 0.0577 µM.

And the Kd [25, 50]?
Its Kd is no less than 20 µM.

What about the Kd [23, 50] of the same sequence?
Its Kd is no less than 20 µM.

And the Kd [26, 50]?
The Kd was no less than 20 µM.

And the Kd [27, 50]?
Its Kd is no less than 20 µM.

What about the Kd [40] of the same sequence?
Its Kd is no less than 20 µM.

And the Kd [41]?
The Kd was no less than 20 µM.

What about the Kd [42] of the same sequence?
The Kd was no less than 20 µM.

For MMLSPLVAL, which Kd [24, 51] is on record?
Its Kd is 0.0002 µM.

And the Kd [26, 51]?
Its Kd is 0.0008 µM.

And the Kd [43]?
Its Kd is 0.96 µM.

And the Kd ([31]; source organism: Salmonella enterica subsp. enterica serovar Typhi str. CT18)?
Its Kd is 0.858 µM.

RTLASGLIY was tested. Which Kd [44, 49] did it give?
Its Kd is 0.0673 µM.

What does the source list for SGIDTNAYY?
Kd ([17]; source organism: West Nile virus): ≥ 20 µM; Kd ([19]; source organism: West Nile virus strain PTRoxo): ≥ 20 µM

TLYCVHQR was tested. Which Kd ([44]; source organism: Human immunodeficiency virus 1) did it give?
The Kd was 0.111 µM.

What does the source list for WALDVPMYF?
Kd [29, 52]: ≤ 0.001 µM; Kd [1, 52]: 0.179 µM; Kd ([15]; source organism: Aurantimonas manganoxydans): 0.0036 µM; Kd ([3]; source organism: Brucella suis 1330): 0.034 µM

WWLEYTASF was tested. Which Kd ([1]; source organism: Burkholderia mallei SAVP1) did it give?
The Kd was no less than 20 µM.

And the Kd ([13]; source organism: Burkholderia mallei ATCC 23344)?
The Kd was 0.068 µM.

What about the Kd [45] of the same sequence?
Its Kd is 0.077 µM.
